Measurements: patent US20210040174A1

Columns and labels:
[1] = target: his-tagged C-terminal fragment from CA125 (UniProt Q8WXI7); assay: SPR (BiaCore T200): fusion protein captured on Protein A chip, his-tagged C-terminal CA125 fragment as analyte; one MCB domain (MCB domain-1X, SEQ ID: 4)
[2] = target: his-tagged C-terminal fragment from CA125 (UniProt Q8WXI7); assay: SPR (BiaCore T200): fusion protein captured on Protein A chip, his-tagged C-terminal CA125 fragment as analyte; two MCB domains (MCB domain-2X, SEQ ID: 2)

Substance	Kd [1]	Kd [2]
MCB domain-1X fusion protein (single MCB domain of mesothelin linked to the N-terminus of the human IgG1 Fc heavy chain) (Fc fusion)	0.0652 nM	–
MCB domain-2X fusion protein (two MCB domains of mesothelin linked via a single spacer unit to the N-terminus of the human IgG1 Fc heavy chain) (Fc fusion)	–	0.0149 nM
